# From patent publication US20250236683A1 (published 2025)
# B1: CK1-10 (antibody, V domains shown)
# VH: AVTLDESGGGLQTPGRALSLVCKASGFTFSDYGMGWMRQAPGKGLEWVGAISNRGSHTYYGAAVKGRATISRDNGQSTVRLQLNNLRAEDTGTYYCAKDAGTCISSYGFSCVSAASIDAWGHGTEVIVSS
# VL: ALTQPSSVSANLGGTVKITCSGGSGSYGGSYYYGWYQQKAPGSAPVTLIYDNTNRPSNIPSRFSGSKSGSTATLTITGVQADDEAVYFCGSIDSISDADIFGAGTTLTVLG
# B2: PK1-16 (antibody, V domains shown)
# VH: AVTLDESGGGLQTPGGGLSLVCKASGFTFRSYAMYWVRQAPGKGLEWLAGISSSGRYTGYAPAVKGRATISRDNGQSTVRLQLSNLRAEDAGTYYCAKDVYDSWTYANRIDAWGHGTEVIVSS
# VL: ALTQPSSVSANPGETVKITCSGGGRRGYYGWYQQKSPGSAPVTVIYNNDERPSNIPSRFSGFKSGSTATLTITGVQAEDEAVYYCGSGDTTTDSGIFGAGTTLTVLG
# B3: CK1-14 (antibody, V domains shown)
# VH: AVTLDESGGGLQTPGGALSLVCKASGFTFTRYAIQWVRQAPGKGLEWVGVINSGGRTLYAPAVKGRATISRDNGQSTVRLQLNNLRAEDTAIYYCVRGGYAYGIETWGHGTEVIVSS
# VL: ALTQPSSVSANPGETVKITCSGSRYDYGWYQQKSPGSAPVTLIYYNNKRPSDIPSRFSGSKSGSTHTLTITGVQADDEAVYFCGSTDTSNDIFGAGTTLTVLG
# Target: human PAD2 protein (UniProt Q9Y2J8 1-665)
# Sequence (Q9Y2J8 whole entry): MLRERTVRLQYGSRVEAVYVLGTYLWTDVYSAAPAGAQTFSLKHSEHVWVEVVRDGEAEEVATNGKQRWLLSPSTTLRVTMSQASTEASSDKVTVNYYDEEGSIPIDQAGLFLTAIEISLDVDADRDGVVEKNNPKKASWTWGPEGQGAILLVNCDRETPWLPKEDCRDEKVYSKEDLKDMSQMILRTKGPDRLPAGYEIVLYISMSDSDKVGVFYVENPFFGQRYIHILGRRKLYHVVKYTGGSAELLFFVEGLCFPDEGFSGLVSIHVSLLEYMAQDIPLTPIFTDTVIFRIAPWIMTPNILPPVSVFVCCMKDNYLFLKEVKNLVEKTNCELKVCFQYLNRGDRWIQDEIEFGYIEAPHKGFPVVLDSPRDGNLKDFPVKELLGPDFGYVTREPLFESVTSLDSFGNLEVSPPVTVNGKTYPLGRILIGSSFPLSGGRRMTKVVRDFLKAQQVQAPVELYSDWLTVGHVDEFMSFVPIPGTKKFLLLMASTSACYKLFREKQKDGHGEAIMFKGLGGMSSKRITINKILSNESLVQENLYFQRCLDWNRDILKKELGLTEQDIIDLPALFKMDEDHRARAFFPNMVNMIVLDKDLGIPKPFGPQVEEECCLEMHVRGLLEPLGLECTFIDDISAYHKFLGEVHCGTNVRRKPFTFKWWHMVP
# Experiment: SPR
row,Kd [nM],Binder
1,0.9,B1
2,1.68,B2
3,1.37,B3
